Substitutions are numbered along the chain they refer to. Like-named read-outs stand apart in the source and are kept apart here.
Assays:
[1] = molecular target: T1, FLAG-tagged cynomolgus Ang2 (cynomolgus, UniProt O15123 19-496 (human entry), limits assumed); experiment: competition ELISA: FLAG-cAng2 binding to coated cTie2-Fc
T1 construct: N-terminally FLAG-tagged, conditioned medium of HEK293T cells; also called cAng2; FLAG-cAng2
T1 chain: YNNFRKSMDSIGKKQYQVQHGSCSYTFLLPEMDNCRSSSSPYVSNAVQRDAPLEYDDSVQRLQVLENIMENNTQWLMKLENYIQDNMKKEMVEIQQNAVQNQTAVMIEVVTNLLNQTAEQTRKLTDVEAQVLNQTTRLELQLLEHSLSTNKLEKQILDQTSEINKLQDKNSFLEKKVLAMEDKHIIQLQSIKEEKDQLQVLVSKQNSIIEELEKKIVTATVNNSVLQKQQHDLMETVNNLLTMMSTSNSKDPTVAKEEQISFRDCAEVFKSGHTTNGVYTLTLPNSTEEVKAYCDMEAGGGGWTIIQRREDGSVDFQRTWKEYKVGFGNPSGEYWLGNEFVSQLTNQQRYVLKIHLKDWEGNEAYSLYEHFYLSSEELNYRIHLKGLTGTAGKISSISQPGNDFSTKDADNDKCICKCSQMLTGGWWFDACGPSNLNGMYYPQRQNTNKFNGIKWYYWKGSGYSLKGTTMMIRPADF
Procedure: (§1) In brief, 2 μg/mL of recombinant mouse Tie2-Fc or cyno Tie2-Fc is coated overnight at 4° C. in a 96-well MaxiSorp plate (Nunc, Wiesbaden, Germany). Coated wells are blocked with a 1% casein solution.

[2] = molecular target: T2, FLAG-tagged mouse Ang2 (mouse, UniProt O35608 19-496); experiment: competition ELISA: FLAG-mAng2 binding to coated mTie2-Fc
T2 construct: N-terminally FLAG-tagged, conditioned medium of HEK293T cells; also called mAng2; FLAG-mAng2
T2 sequence: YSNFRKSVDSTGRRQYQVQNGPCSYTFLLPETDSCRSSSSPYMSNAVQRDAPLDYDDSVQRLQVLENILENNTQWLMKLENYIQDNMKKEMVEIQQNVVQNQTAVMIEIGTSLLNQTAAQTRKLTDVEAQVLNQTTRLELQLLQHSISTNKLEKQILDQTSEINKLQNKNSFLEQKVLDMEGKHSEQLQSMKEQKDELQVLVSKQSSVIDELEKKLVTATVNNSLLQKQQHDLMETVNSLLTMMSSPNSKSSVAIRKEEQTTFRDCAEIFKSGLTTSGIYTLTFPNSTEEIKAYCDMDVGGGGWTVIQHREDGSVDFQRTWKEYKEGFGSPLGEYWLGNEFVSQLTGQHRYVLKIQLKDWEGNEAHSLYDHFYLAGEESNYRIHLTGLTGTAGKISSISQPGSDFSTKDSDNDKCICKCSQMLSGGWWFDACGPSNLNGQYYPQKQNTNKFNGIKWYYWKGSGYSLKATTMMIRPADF
Procedure: as §1

[3] = molecular target: T3, N-terminally FLAG-tagged mouse Ang2 (HEK293T conditioned medium) (mouse, UniProt O35608 19-496); experiment: competition ELISA, FLAG-mAng2 on coated mTie2-Fc
T3 construct: may be a nucleotide entry; also called mAng2; FLAG-mAng2
T3 sequence: T2 sequence
Procedure: as §1

[4] = molecular target: T2, FLAG-tagged mouse Ang2; experiment: competition ELISA: FLAG-mAng2 binding to coated mTie2-Fc; remark: listed apart in the source
Procedure: as §1

[5] = molecular target: T1, FLAG-tagged cynomolgus Ang2; experiment: competition ELISA: FLAG-cAng2 binding to coated cTie2-Fc
Procedure: as §1

B1: VHH 00044 (VHH, not shown: small tags and cut ends)
VHH: EVQLVESGGGLVQPGGSLRLSCAASGFALDYYAIGWFRQAPGKEREGVSCISSSDGITYYVDSVKGRFTISRDNSKNTVYLQMNSLRPEDTAVYYCATDSGGYIDYDCMGLGYDYWGQGTLVTVSS
- IC50 [1]: 0.13 nM
- IC50 [2]: 0.091 nM

B2: VHH 00045 (VHH, not shown: small tags and cut ends)
VHH: B1 VHH with V61A
- IC50 [1]: 0.16 nM
- IC50 [2]: 0.11 nM

B3: VHH 00046 (VHH, not shown: small tags and cut ends)
VHH: B1 VHH with D55G
- IC50 [1]: 0.16 nM
- IC50 [2]: 0.083 nM

B4: VHH 2F04 (VHH)
VHH: EVQLVESGGGLVQAGGSLRLSCAASGFAFDDHLIGWFRQAPGKEREAVSCISRSAGSTYYADSVKGRFTISSDNAKNTVYLQMNSLKADDTAVYYCAAGPAWGRPASPLPYEYDYWGQGTQVTVSS
notes: also called 002F04; not shown: C-terminal c-myc tag and His6 tag
- IC50 [3]: 57.4 nM

B5: VHH 6H05 (VHH)
VHH: EVQLVESGGGLVQAGGSLRLSCAASGFTFDDYAIGWFRQAPGKEREGVSCISSSDGSTAYADSVKGRFTISSDNAKNTVYLQMNSLKPEDTAVYYCTAVPATRRTPQMVAANVCWLAEYEYDYWGQGTQVTVSS
notes: also called 006H05; not shown: C-terminal c-myc tag and His6 tag
- IC50 [3]: 7.7 nM

B6: VHH 21G10 (VHH)
VHH: EVQLVESGGGLVQAGGSLRLSCAASGFTLDDYAIGWFRQAPGKEREGVSCISSSDGSTTYADSVKGRFTVSSDNAKNTVYLQMNSLKPEDTAVYYCAAGLRGRYYRGTYSLVCAPYEYDFWGQGTQVTVSS
notes: also called 021G10; not shown: C-terminal c-myc tag and His6 tag
- IC50 [3]: 16.8 nM

B7: VHH 16G09 (VHH)
VHH: EVQLVESGGGLVQAGGSLRLVCSASGIDFSINAMAWYRQAPGKQREWVAFMINDSSTDYTDSVKGRFTISRDSTKNILYLQMNNLNVEDTAVYYCNTAYEQHTYWGQGTQVTVSS
notes: also called 016G09; not shown: C-terminal c-myc tag and His6 tag
- IC50 [3]: 19.4 nM

B8: VHH 3F02 (VHH)
VHH: EVQLVESGGGLVQVGDSLRLACAASGRTFSTYLMVGWFRQAPGKEREFAAGIWSSGDTAYADSVKGRFTISRDNAKNTVYLQMNSLKTEDTAVYYCAGSYDGNYYIPGFYKDWGQGTQVTVSS
notes: also called 003F02; not shown: C-terminal c-myc tag and His6 tag
- IC50 [3]: 32.7 nM

B9: VHH 12B03 (VHH)
VHH: EVQLVESGGGLVQSGGSLRLSCAASGFALDYYTIGWFRQAPGKEREGVSCISGGDTSTYYADSVKGRFTISRDNAKNTVYLQMNSLKPEDTAVYYCATDSAGVPAGPAAVYGSTCSRLEYDYWGQGAQVTVSS
notes: also called 012B03; not shown: C-terminal c-myc tag and His6 tag
- IC50 [3]: 6.7 nM

B10: VHH 00025 (VHH, not shown: small tags and cut ends)
VHH: EVQLVESGGGLVQAGGSLRLSCAASGFTLDDYAIGWFRQAPGKEREGVSTIRDSDGSTYYADSVKGRFTISSDNDKNTVYLQMNSLKPEDTAVYYCAAVPAGRLRFGEQWYPLYEYDAWGQGTLVTVSS
- IC50 [1]: 1.7 nM
- IC50 [4]: 4.9 nM

B11: VHH 00936 (VHH, not shown: small tags and cut ends)
VHH: B10 VHH with A14P, A24V, F27I, T50A, S54N, D55G, D75S, K87R, F106Y, L113I
notes: Cycle 3 variant of 28D10 on the 00908 backbone
- IC50 [5]: 0.06 nM

B12: VHH 00934 (VHH, not shown: small tags and cut ends)
VHH: B10 VHH with A14P, F27I, T50A, D53E, D55G, D75S, K87R, F106Y, L113I
notes: as for B11
- IC50 [5]: 0.071 nM

B13: VHH 00041 (VHH, not shown: small tags and cut ends)
VHH: B10 VHH with A14P, T50S, S54N, D75A, K87R
- IC50 [1]: 0.9 nM
- IC50 [4]: 1.7 nM

B14: VHH 00048 (VHH, not shown: small tags and cut ends)
VHH: B10 VHH with T50S
- IC50 [1]: 1 nM
- IC50 [4]: 2.1 nM

B15: VHH 00052 (VHH, not shown: small tags and cut ends)
VHH: B10 VHH with A14P, T50S, S54N, K87R
- IC50 [1]: 0.8 nM
- IC50 [4]: 2.1 nM

B16: VHH 00026 (VHH, not shown: small tags and cut ends)
VHH: B10 VHH with T50A
- IC50 [1]: 1.1 nM
- IC50 [4]: 2.6 nM

B17: VHH 00055 (VHH, not shown: small tags and cut ends)
VHH: B10 VHH with T50S, S54N, D55G
- IC50 [1]: 2 nM
- IC50 [4]: 4.6 nM

B18: VHH 00053 (VHH, not shown: small tags and cut ends)
VHH: B10 VHH with A14P, T50S, S54N, S72R, K87R
- IC50 [1]: 13.8 nM
- IC50 [4]: 36.7 nM

B19: VHH 00043 (VHH, not shown: small tags and cut ends)
VHH: B10 VHH with A14P, T50S, S54N, S72R, D75A, K87R
- IC50 [1]: 12.6 nM
- IC50 [4]: 29.2 nM

B20: VHH 00054 (VHH, not shown: small tags and cut ends)
VHH: B10 VHH with A14P, T50S, S54N, S72R, D75S, K87R
- IC50 [1]: 11.7 nM
- IC50 [4]: 22.9 nM

B21: VHH 00937 (VHH, not shown: small tags and cut ends)
VHH: B10 VHH with A14P, A24V, F27I, T50A, D53E, D55G, D75S, K87R, F106Y, L113I
notes: as for B11
- IC50 [5]: 0.085 nM

B22: VHH 1D01 (VHH, not shown: small tags and cut ends)
VHH: EVQLVESGGGLVQAGGSLRLSCAASGFTFDDYALGWFRQAAGKEREGVSCIRCSDGSTYYADSVKGRFTISSDNAKNTVYLQMNSLKPEDTAVYYCAASIVPRSKLEPYEYDAWGQGTQVTVSS
notes: Parental llama VHH; also called 001D01
- IC50 [1]: 9.1 nM
- IC50 [2]: 12.4 nM

B23: VHH 00049 (VHH, not shown: small tags and cut ends)
VHH: B22 VHH with A14P, A75S, K87R, Q119L
- IC50 [1]: 4.5 nM
- IC50 [2]: 20.3 nM

B24: VHH 00050 (VHH, not shown: small tags and cut ends)
VHH: B22 VHH with A14P, A41P, A75S, K87R, Q119L
- IC50 [1]: 4.8 nM
- IC50 [2]: 18.6 nM

B25: VHH 00925 (VHH, not shown: small tags and cut ends)
VHH: B22 VHH with E1D, A14P, A41P, D55G, A75S, K87R, Q119L
- IC50 [1]: 33 nM
- IC50 [2]: 28.4 nM

B26: VHH 00040 (VHH, not shown: small tags and cut ends)
VHH: B22 VHH with A14P, A41P, S72R, A75S, K87R, Q119L
- IC50 [1]: 5.8 nM
- IC50 [2]: 29 nM

B27: VHH 00039 (VHH, not shown: small tags and cut ends)
VHH: B22 VHH with A14P, S72R, A75S, K87R, Q119L
- IC50 [1]: 6.4 nM
- IC50 [2]: 28.1 nM

B28: VHH 00051 (VHH, not shown: small tags and cut ends)
VHH: B22 VHH with A14P, D55G, A75S, K87R, Q119L
- IC50 [1]: 15 nM
- IC50 [2]: 37.9 nM

B29: VHH 3A07 (VHH)
VHH: EVQLVESGGGLVQPGGSLRLSCAASGFTLDYDAIGWFRQAPGKEREGVSCITSSDGITYYADSVKGRFTISRDNAKNTVYLQMNSLKPEDTAVYYCATGNRRIYYSDYALACFPYEYDYWGQGTQVTVSS
notes: also called 003A07; not shown: C-terminal c-myc tag and His6 tag
- IC50 [3]: 99.3 nM

B30: VHH 10C06 (VHH)
VHH: EVQLVESGGGLVQAGGSLRLSCVASGFTFDDYAIGWFRQAPGKEREGVSCISSSDGSTYYADSVKGRFTISGDNAKNTVYLQMNSLKPEDTAVYYCAAGITPCSDYTQTYEYDVWGQGTQVTVSS
notes: also called 010C06; not shown: C-terminal c-myc tag and His6 tag
- IC50 [3]: 45.2 nM

B31: VHH 14H02 (VHH)
VHH: EVQLVESGGGLVQAGGSLRLSCAASGFTFDEYAIGWFRQAPGKEREGVSYISSSDGSTYYADSVKGRVTSSSDNAKNTVYLQMNSLKPEDTAVYYCAARPTLRVRLDNDRHHLLYEYEYDYWGQGTQVTVSS
notes: also called 014H02; not shown: C-terminal c-myc tag and His6 tag
- IC50 [3]: 143 nM

From patent US20230203146A1 (Boehringer Ingelheim, published 2023)
